Data set [1] deals with Il2rg ZFN-2 (zinc finger-FokI nuclease) (synthetic construct). The data set can be described thus: cell_activity. As to conditions: pair ZFN-1+ZFN-2, clones with ZFN cleavage (6/192) in mouse F1H4 ES cells without LTVEC; 6.9% among non-targeted clones with LTVEC; 6 bp spacer.
Data set [2] has as its system Il2rg ZFN-1 (zinc finger-FokI nuclease) (synthetic construct). As to the kind of experiment: cell_activity. Particulars: pair ZFN-1+ZFN-2, clones with ZFN cleavage (6/192) in mouse F1H4 ES cells without LTVEC; 6.9% among non-targeted clones with LTVEC; 6 bp spacer.

In data set [1], “GTCTTCATTCGCACT (double strand) [Il2rg exon 1 ZFN-2 half-site (antisense strand)]” returned an activity of 3.1%.
“AGCTCCAAGGTCCTC (double strand) [Il2rg exon 1 ZFN-1 half-site (sense strand)]” returned an activity in data set [2] of 3.1%.
